Patent US20130017251A1 (J DAVID GLADSTONE INSTITUTES, published 2013)

Assays:
[1] = target: T1, DMPC-lipidated apoE3 (DMPC:apoE=4:1) (human, UniProt P02649 19-317); test: ELISA; lipid-free or DMPC-lipidated apoE coated (50 ng protein/well)
T1 construct: Same protein as m3, in complex with dimyristoyl phosphatidylcholine (not covalent)
Procedure: (§1) Preparation of apoE and DMPC complex. Dimyristoyl phosphatidylcholine (DMPC) (Avanti Polar Lipids, Alabaster, Ala.) was used at a concentration of 20 mg/ml dissolved into phosphate-buffered saline (PBS). DMPC solution was sonicated for 6 min per cycle until the solution became clear and centrifuged at 14,000 rpm for 2 min to pellet debris. ApoE was then added to obtain various final stock concentrations and allowed to incubate at 23.7° C. overnight before use in enzyme-linked immunosorbent assay (ELISA) experiments.
(§2) ApoE ELISA. […] Wells were washed several times with wash buffer (PBS containing 0.1% bovine serum albumin (BSA)) and blocked for 1 h with 4% BSA in PBS. All incubations were performed at room temperature. […] Secondary antibodies against goat or mouse IgG labeled with horse radish peroxidase (HRP) diluted in blocking buffer were added to the wells after several washes and incubated for 1 h. […] substrate (Thermo-Pierce) was used to visualize the amount of bound secondary antibody at 450 nm on a SpectraMax190 plate reader (Molecular Devices) using Softmax Pro software for data collection.
(§3) All experiments were performed in triplicate. Values are mean±SD. OD, optical density.

[2] = target: T2, DMPC-lipidated apoE4 (DMPC:apoE=4:1) (human, UniProt P02649 19-317); test: as above
T2 construct: Same protein as m2, in complex with dimyristoyl phosphatidylcholine (not covalent)
Procedure: as §1, §2, §3

[3] = target: T3, recombinant human apolipoprotein E4, full length (human, UniProt P02649 19-317); test: inhibition ELISA; apoE preincubated with 3H1 IgG, added to Aβ1-42-coated wells
T3 construct: Recombinant protein in ELISA; expressed in transfected Neuro-2a or C6 cells for western blot and cell staining; also called apoE4; apoE4(1-299)
Procedure: ApoE and Aβ binding assay. Aβ₁₋₄₂ (Biopeptides) was used to coat the surface of a 96-well plate at 330 ng/well and ELISA was performed essentially as described above. […] Subsequent detection of apoE bound with Aβ was performed with polyclonal anti-apoE, as stated above.
FIGS. 6A and 6B. […] After washing, the binding of apoE to Aβ was detected with polyclonal anti-apoE in an ELISA. […] After incubation, the mixture was added to Aβ₁₋₄₂-coated wells, and the binding of apoE to Aβ was detected with polyclonal anti-apoE after washing. All experiments were performed in triplicate. Values are mean±SD. OD, optical density.

[4] = target: T3, recombinant human apolipoprotein E4, …; test: ELISA; apoE coated (50 ng/well), 3H1 as primary antibody
Procedure: Secondary antibodies against goat or mouse IgG labeled with horse radish peroxidase (HRP) diluted in blocking buffer were added to the wells after several washes and incubated for 1 h. […] substrate (Thermo-Pierce) was used to visualize the amount of bound secondary antibody at 450 nm on a SpectraMax190 plate reader (Molecular Devices) using Softmax Pro software for data collection.
(§4) A, A schematic of different functional domains of human apoE. […] All experiments were performed in triplicate. Values are mean±SD. OD, optical density.

[5] = target: T4, N-terminal 22-kDa fragment of apoE4 (aa 1-191) (human, UniProt P02649 19-209); test: ELISA on coated fragment
T4 construct: Range 1-191 is in apoE (299-residue) numbering
T4 chain: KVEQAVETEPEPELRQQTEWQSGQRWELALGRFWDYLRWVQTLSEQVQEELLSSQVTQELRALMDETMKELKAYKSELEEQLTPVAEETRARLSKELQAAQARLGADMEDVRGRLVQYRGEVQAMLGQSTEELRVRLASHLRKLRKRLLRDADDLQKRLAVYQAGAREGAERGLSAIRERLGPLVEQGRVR
Procedure: as §2, §4

[6] = target: T5, N-terminal 22-kDa fragment of apoE3 (aa 1-191) (human, UniProt P02649 19-209); test: ELISA on coated fragment
T5 construct: Range 1-191 is in apoE (299-residue) numbering
Procedure: as §2, §4

[7] = target: T6, green fluorescent protein-apoE(231-272) (human, UniProt P02649 249-290, not fully specified); test: western blot, transfected Neuro-2a cells
T6 construct: Expressed in transiently transfected Neuro-2a cells; not shown: green fluorescent protein tag
T6 chain: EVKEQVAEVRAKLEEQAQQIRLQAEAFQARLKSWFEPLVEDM
Procedure: (§5) Cell culture, transfection, and western blotting. Mouse neuroblastoma (Neuro-2a) and astrocytic (C6) cells (American Type Culture Collection, Manassas, Va.) maintained at 37° C. in MEM containing 10% fetal bovine serum (FBS) were transiently transfected with different apoE cDNA constructs using Lipofectamine 2000 (Invitrogen) (Huang et al., 2001). Neuro-2a cells expressing different forms of apoE were collected in a low-detergent lysis buffer, separated by sodium dodecyl sulfate-polyacrylamide gel electrophoresis (SDS-PAGE), and immunoblotted for apoE with polyclonal and monoclonal antibodies, as described (Huang et al., 2001).

apoE(1-240) = target: T7, apoE(1-240) (human, UniProt P02649 19-258); test: western blot, transfected Neuro-2a cells
T7 construct: If 1-244 is right the range is 19-262
Procedure: as §5

apoE(1-260) = target: T8, apoE(1-260) (human, UniProt P02649 19-278); test: western blot, transfected Neuro-2a cells
T8 construct: Expressed in transiently transfected Neuro-2a cells; also called apoE4(1-260)
Procedure: as §5

B1: apoE-specific monoclonal antibody 3H1 (antibody, V domains shown)
VH: EVQLVESGGGLVKPGGSLKLSCAASGFTFSSYAMSWVRQTPEKRLEWVATISSGGSYTYYPDSVKGRFTISRDNAKNTLYLQMSSLRSEDTAMYYCARQFYYYGGSYDYFDYWGQGTTLTVS
VL: DIVLTQSPATLSVTPGDSVSLACRASQSISNNLHWYQQKSHESPRLLIKYAYQSISGIPSRFSGSGSGTDFTLSINSVETEDFGMYFCQQSNSWPLTFGVGTKLEIKR
notes: Mouse monoclonal IgG (detected with anti-mouse IgG; used as purified 3H1 IgG); also called 3H1 IgG; purified 3H1 IgG
[1]
  fold increase of reactivity against lipid-free apoE3: ~120 fold
[2]
  fold increase of reactivity against lipid-free apoE4: ~20 fold
[3]
  percent lower IC50 than for apoE3: ~90%
[4]
  fold reactivity against apoE3: 9 fold
[5]
  binding result: no binding
[6]
  binding result: no binding
[7]
  binding result: no binding
apoE(1-240)
  binding result: no binding
apoE(1-260)
  binding result: no binding
